The source of these data is PMC9239255, “Switching off Bacterial Flagellar Biogenesis by YdiU-Mediated UMPylation of FlhDC”.

In the series the target is T1, FlhDC (native, un-UMPylated) (Escherichia coli K-12 MG1655, UniProt P0A8S9;P0ABY7 1-116;1-192).
T1 sequence 1: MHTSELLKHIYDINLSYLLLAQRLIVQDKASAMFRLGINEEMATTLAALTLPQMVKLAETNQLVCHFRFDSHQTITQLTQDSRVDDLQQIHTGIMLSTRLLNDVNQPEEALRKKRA
T1 sequence 2: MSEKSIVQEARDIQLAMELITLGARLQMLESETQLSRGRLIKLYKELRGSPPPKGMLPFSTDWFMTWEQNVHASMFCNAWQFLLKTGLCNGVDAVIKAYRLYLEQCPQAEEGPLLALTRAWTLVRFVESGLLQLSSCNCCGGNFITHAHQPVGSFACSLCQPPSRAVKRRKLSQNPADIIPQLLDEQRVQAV
Put plainly: EMSA; 10 nM DNA; shift at protein:DNA ratio greater than 1. Conditions: protein: recombinant; tags: none apparent (pET21b; reverse primer carries stop codon); chain copies: 4;2; label: 5'-FAM on strand 1 (Methods call both oligos FAM-flhB); blunt. A general note: Mobility shift assays separate free from complexed probe on a gel.

B1: pflhB (flhB promoter) (dsDNA)
DNA 1: ATTAACGCCATAAACCCCGCCTTTTTTACCGCTTACTCTGCCTATTGGCGT
DNA 2: ACGCCAATAGGCAGAGTAAGCGGTAAAAAAGGCGGGGTTTATGGCGTTAAT
Consider B1, for which the binding result is on record as “binds”.
